Experimental data taken from paper PMC2169334.

Target: ankyrin-B (UniProt Q01484)
Sequence of UniProt Q01484 (Q01484 whole entry): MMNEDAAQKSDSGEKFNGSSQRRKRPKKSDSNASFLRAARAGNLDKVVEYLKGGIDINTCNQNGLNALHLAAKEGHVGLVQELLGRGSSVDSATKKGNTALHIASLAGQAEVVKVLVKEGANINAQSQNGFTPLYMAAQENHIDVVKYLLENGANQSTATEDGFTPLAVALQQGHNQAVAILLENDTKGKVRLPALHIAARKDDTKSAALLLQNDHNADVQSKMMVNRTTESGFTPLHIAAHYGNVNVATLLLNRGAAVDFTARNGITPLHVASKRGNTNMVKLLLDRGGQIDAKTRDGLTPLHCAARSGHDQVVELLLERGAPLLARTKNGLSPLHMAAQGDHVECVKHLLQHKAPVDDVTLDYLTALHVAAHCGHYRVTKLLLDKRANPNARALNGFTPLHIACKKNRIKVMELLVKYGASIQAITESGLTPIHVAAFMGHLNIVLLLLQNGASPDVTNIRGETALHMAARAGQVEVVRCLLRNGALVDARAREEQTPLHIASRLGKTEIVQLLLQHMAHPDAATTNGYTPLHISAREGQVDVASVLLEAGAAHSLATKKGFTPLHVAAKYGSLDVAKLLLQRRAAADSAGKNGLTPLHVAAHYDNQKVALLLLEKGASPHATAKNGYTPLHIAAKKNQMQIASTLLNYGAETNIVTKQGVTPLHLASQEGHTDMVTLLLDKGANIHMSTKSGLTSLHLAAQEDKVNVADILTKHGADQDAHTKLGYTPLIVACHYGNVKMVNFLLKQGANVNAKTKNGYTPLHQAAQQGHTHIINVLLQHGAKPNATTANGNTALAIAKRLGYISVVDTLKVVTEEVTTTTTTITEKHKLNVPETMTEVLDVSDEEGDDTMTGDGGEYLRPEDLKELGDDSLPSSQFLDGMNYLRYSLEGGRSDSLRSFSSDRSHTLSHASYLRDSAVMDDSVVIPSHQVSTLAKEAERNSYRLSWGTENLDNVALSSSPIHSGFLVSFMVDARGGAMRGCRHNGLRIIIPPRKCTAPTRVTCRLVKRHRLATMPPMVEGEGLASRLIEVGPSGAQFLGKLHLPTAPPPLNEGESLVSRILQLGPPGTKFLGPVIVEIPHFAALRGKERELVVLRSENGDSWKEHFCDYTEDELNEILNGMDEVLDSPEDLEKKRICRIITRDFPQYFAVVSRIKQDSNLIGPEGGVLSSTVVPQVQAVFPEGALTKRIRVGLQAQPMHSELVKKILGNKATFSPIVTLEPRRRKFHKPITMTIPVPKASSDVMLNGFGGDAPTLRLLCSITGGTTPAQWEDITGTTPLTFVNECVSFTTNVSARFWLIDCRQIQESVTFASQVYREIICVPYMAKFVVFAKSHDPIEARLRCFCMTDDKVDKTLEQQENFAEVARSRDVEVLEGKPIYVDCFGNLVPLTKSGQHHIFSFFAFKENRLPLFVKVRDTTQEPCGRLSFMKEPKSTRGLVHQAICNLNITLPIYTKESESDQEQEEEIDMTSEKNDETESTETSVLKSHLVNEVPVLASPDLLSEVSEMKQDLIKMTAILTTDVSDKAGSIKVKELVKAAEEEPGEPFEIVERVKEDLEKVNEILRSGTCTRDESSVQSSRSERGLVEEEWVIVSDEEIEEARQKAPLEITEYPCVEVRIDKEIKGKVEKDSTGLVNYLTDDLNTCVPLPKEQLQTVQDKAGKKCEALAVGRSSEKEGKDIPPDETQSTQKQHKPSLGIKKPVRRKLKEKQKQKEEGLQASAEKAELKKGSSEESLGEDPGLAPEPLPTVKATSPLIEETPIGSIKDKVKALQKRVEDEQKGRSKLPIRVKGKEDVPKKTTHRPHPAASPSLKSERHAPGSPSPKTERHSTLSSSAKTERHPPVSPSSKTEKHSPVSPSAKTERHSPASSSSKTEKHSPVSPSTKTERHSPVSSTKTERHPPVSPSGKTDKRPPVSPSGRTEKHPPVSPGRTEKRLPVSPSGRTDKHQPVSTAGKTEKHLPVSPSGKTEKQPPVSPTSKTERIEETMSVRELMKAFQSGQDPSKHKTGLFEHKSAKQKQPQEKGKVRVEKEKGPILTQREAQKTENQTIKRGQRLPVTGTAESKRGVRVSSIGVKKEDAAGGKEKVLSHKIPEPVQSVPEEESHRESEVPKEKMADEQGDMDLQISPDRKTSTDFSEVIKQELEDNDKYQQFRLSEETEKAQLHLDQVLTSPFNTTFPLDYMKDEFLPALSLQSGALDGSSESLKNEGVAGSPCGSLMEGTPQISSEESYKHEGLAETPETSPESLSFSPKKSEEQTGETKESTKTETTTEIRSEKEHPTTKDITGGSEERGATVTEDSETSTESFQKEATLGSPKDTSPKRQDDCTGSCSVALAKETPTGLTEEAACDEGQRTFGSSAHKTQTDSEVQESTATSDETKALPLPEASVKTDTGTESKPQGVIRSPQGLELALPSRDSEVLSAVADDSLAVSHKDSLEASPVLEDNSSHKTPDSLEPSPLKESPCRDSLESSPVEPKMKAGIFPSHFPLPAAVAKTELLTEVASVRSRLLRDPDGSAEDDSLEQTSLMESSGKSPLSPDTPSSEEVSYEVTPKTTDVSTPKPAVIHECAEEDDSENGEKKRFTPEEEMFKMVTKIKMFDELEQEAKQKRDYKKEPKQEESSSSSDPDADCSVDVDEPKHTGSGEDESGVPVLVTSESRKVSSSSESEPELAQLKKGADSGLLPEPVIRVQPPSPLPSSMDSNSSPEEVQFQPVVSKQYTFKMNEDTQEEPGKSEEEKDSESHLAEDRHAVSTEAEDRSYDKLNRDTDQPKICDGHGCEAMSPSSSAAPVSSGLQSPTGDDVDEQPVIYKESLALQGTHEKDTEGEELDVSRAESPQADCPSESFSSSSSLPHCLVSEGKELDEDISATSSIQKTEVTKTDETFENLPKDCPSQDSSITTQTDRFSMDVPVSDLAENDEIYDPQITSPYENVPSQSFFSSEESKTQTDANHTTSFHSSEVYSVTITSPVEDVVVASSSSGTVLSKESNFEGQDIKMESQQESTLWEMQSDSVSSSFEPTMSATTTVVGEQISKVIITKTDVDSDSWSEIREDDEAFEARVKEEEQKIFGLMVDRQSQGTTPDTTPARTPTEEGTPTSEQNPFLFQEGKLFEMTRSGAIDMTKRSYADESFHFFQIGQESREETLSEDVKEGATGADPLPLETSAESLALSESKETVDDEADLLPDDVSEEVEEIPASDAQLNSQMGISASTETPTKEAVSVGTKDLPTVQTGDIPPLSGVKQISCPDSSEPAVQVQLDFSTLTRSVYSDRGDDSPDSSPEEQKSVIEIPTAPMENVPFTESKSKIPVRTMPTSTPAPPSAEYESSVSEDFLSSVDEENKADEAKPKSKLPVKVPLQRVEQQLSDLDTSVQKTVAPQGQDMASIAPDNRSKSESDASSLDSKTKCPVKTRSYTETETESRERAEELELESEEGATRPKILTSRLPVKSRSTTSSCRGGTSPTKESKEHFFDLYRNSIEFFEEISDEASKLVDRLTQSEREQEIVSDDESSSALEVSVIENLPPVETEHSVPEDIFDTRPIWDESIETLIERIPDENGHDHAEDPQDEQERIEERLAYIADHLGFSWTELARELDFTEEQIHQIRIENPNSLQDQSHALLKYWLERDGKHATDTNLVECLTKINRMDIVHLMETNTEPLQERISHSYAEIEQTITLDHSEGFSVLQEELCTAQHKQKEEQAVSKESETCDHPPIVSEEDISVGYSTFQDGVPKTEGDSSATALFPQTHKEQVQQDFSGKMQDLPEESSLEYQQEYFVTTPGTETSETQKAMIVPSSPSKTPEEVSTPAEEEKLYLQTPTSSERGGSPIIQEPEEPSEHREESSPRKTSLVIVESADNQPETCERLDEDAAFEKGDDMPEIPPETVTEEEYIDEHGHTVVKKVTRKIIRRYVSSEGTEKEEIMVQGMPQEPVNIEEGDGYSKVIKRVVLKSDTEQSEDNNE

- Kd: 200 nM
Substance: IP3 receptor (from UniProt P29994 1-2750)
